EP3443010B1
Residue numbers refer to the chain shown, from its start.

B1: Kwar23 (antibody, from another filing, V domains shown)
VH: EVQLQQSGAELVKPGASVKLSCTASGFNIKDYYIHWVQQRTEQGLEWIGRIDPEDGETKYAPKFQDKATITADTSSNTAYLHLSSLTSEDTAVYYCARWGAYWGQGTLVTVSS
VL: QIVLTQSPAIMSASPGEKVTLTCSASSSVSSSYLYWYQQKPGSSPKLWIYSTSNLASGVPARFSGSGSGTSYSLTISSMEAEDAASYFCHQWSSYPRTFGAGTKLELK
B2: HELA (antibody, human IgG4 S228P, kappa, V domains shown)
VH: EVQLVQSGAEVKKPGESLRISCKASGYSFTSYWVHWVRQMPGKGLEWMGNIDPSDSDTHYSPSFQGHVTLSVDKSISTAYLQLSSLKASDTAMYYCVRGGTGTLAWFAYWGQGTLVTVSS
VL: DVVMTQSPLSLPVTLGQPASISCRSSQSLVHSYGNTYLYWYQQRPGQSPRLLIYRVSNRFSGVPDRFSGSGSGTDFTLKISRVEAEDVGVYFCFQGTHVPYTFGGGTKVEIKR
B3: HFLA (antibody, human IgG4 S228P, kappa, V domains shown)
VH: B2 VH with L104M, W106Y
VL: B2 VL
B4: HBLB (antibody, human IgG4 S228P, kappa, V domains shown)
VH: B2 VH with S61N, P62Q, S63K, Q65K, G66D, L104M
VL: B2 VL with Y41F, F92Y
B5: HALB (antibody, human IgG4 S228P, kappa, V domains shown)
VH: B2 VH with S28T, M48I, S61N, P62Q, S63K, Q65K, G66D, L104M
VL: B2 VL with Y41F, F92Y
B6: HBLA (antibody, human IgG4 S228P, kappa, V domains shown)
VH: B2 VH with S61N, P62Q, S63K, Q65K, G66D, L104M
VL: B2 VL
B7: HCLA (antibody, human IgG4 S228P, kappa, V domains shown)
VH: B2 VH with L104M
VL: B2 VL
B8: HELB (antibody, human IgG4 S228P, kappa, V domains shown)
VH: B2 VH
VL: B2 VL with Y41F, F92Y
B9: HFLB (antibody, human IgG4 S228P, kappa, V domains shown)
VH: B2 VH with L104M, W106Y
VL: B2 VL with Y41F, F92Y
B10: HCLB (antibody, human IgG4 S228P, kappa, V domains shown)
VH: B2 VH with L104M
VL: B2 VL with Y41F, F92Y
B11: HEFLA (antibody, human IgG4 S228P, kappa, V domains shown)
VH: B2 VH with W106Y
VL: B2 VL
B12: HEFLB (antibody, human IgG4 S228P, kappa, V domains shown)
VH: B2 VH with W106Y
VL: B2 VL with Y41F, F92Y
B13: HALA (antibody, human IgG4 S228P, kappa, V domains shown)
VH: B2 VH with S28T, M48I, S61N, P62Q, S63K, Q65K, G66D, L104M
VL: B2 VL

Assays:
[1] = biological target: recombinant hSIRPa (Sino Biologicals, reference 11612-H08H) (human) (UniProt P78324); experiment: ELISA, hSIRPa (Sino 11612-H08H) coated at 0.5 ug/ml, anti-human IgG detection
Sequence of recombinant hSIRPa (Sino Biologicals, reference 11612-H08H) (human) (P78324 31-370): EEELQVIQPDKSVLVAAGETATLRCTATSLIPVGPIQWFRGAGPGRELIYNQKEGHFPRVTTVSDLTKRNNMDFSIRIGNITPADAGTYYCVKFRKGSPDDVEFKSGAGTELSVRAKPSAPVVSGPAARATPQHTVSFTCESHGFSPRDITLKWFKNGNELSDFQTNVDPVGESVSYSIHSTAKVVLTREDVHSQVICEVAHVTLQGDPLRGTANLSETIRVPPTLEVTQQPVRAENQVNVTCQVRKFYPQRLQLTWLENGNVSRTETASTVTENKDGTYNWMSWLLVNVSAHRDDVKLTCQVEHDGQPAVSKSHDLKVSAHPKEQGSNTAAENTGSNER

[2] = biological target: recombinant hSIRPa (Sino Biologicals, reference 11612-H08H) (human) (UniProt P78324); experiment: ELISA, hSIRPa (Sino 11612-H08H) coated at 0.5 ug/ml, anti-human IgG detection; second experiment
[3] = biological target: recombinant hSIRPa (Sino Biologicals, reference 11612-H08H) (human) (UniProt P78324); experiment: ELISA, hSIRPa (Sino 11612-H08H) coated at 0.5 ug/ml, anti-human IgG detection; first experiment
[4] = biological target: recombinant hSIRPa (Sino Biologicals, reference 11612-H08H) (human) (UniProt P78324); experiment: ELISA, hSIRPa (Sino 11612-H08H) coated at 0.5 ug/ml, anti-human IgG detection; third experiment

Binder	EC50 [2] [ng/mL]	EC50 [3] [ng/mL]	other results
B1	–	–	EC50 [1]: 3.3 ng/mL
B2	4.61	–	–
B3	–	5.1	–
B4	–	–	EC50 [4]: 2.95 ng/mL
B5	–	–	EC50 [4]: 2.53 ng/mL
B6	–	–	EC50 [4]: 2.68 ng/mL
B7	5.6	–	–
B8	4.13	–	–
B9	–	4	–
B10	5.59	–	–
B11	–	7.1	–
B12	–	4.4	–
B13	–	3.9	–
